The subject of assay [1] is VGE receptor. The experiment in a line: Histochemical GUS staining of treated leaves of T1 transgenic Arabidopsis. It is filed as in vivo, Arabidopsis thaliana. The conditions noted are these: 67 T1 plants, 1:8000 dilution of Intrepid 2F on one leaf, two days, X-Gluc. Here is the method: Analysis of GUS activity—The relative GUS activity in the transgenic Arabidopsis plants described herein was measured by histochemical analysis. In each of sixty-seven (67) T1 transgenic Arabidopsis plants carrying E:GUS, 5G35Sm:RF2a and Cs:VGE, the 1:8000 dilution of Intrepid® 2F described above was applied to one true leaf, while the other leaves in each plant remained untreated. Two-days following the application of the expression-inducing ligand, the treated leaf together with one untreated leaf from the same plant were detached and subjected to GUS staining.
More particularly, the plant leaf tissues mentioned above were submerged in stain solution containing 1 mM of X-Gluc in 100 mM sodium phosphate buffer (pH 7.0), 2 mM K3Fe(CN)6, 2 mM K4Fe(CN)6, 0.1% Triton X-100 and 20% methanol (Petruccelli et al. 2001). In order to evaluate GUS activity, several substrates are available. The most commonly used are 5-bromo-4-chloro-3-indolyl glucuronide (X-Gluc) and 4-methyl-umbelliferyl-glucuronide (MUG). […] For quantification purposes, MUG is preferred, because the umbelliferyl radical emits fluorescence under UV stimulation, thus providing better sensitivity and easy measurement by fluorometry. […]

The test system of assay [2] is VGE receptor. The experiment in a line: Quantitative GUS activity (MUG) in T2 transgenic Arabidopsis. Format: in vivo, Arabidopsis thaliana. The conditions noted are these: twelve T2 lines, 1:8000 dilution of Intrepid 2F in hydroponic solution, three days. Here is the method: Quantitative analysis of GUS activity in methoxyfenozide-treated plants was then conducted. T2 generation transgenic Arabidopsis plants from twelve T1 primary lines were selected on hygromycin selection medium. The lines are individually referred to herein as EGaV-3, EGaV-5, EGaV-17, EGaV-31, EGaV-50, EGaV-51, EGaV-56, EGaV-59, EGaV-63, EGaV-70, EGaV-72, and E:GUS. For each primary line, eighteen 14-day-old T2 plants were used. Nine plants, in three groups, were cultured in MS hydroponic solution containing a 1:8000 dilution of Intrepid 2F®. The remaining nine plants, in three groups, were left untreated and served as controls. After a three-day treatment period, the GUS activity in leaf tissue samples from each plant was quantified.
Each sample of leaf tissue was ground to a powder in liquid nitrogen. Total protein was extracted from each sample by adding 300 μl of extraction buffer. Protein concentration of each sample was quantified using a Dc Protein Assay Kit (Bio-Rad Laboratories, Hercules, Calif.). GUS activity of each sample was quantified using MUG as substrate and a fluorescence spectrometer (Molecular Devices, Sunnyvale, Calif.) (Petruccelli et al., 2001).

Assay [3] concerns VGE receptor. Put plainly: Induction of RF2a expression in transgenic Arabidopsis (Western Blot). It is filed as in vivo, Arabidopsis thaliana. The conditions noted are these: 1:8000 dilution of Intrepid 2F; plants with E:GUS, 5G35Sm:RF2a, Cs:VGE. An excerpt: Induction of RF2a expression—RF2a expression was induced in the transgenic Arabidopsis plants described herein by application of a 1:8000 dilution of the pesticide Intrepid® 2F (Dow AgroSciences, Indianapolis, Ind.). The active ingredient in Intrepid® 2F pesticide is methoxyfenozide. […] Accordingly, the methoxyfenozide compound served as an expression-inducing ligand, which functioned to enhance expression of the RF2a-encoding sequence. Upon application of the methoxyfenozide compound, RF2a expression was induced, thereby allowing RF2a to interact with the Box II-containing E fragment, which was operably linked to the uidA sequence.
Western Blot analysis—To detect the expression of RF2a in select transgenic lines described above, either treated or untreated with Intrepid® 2F, 40 μg of protein of each sample was separated by 12% SDS-PAGE and blotted onto nitrocellulose membrane. The Arabidopsis lines analyzed by Western Blot included EGaV50, EGaV59, EGaV63, EGaV70, EGaV72, and E:GUS. Rabbit anti-RF2a antibodies were first applied to the nitrocellulose membrane, incubated, and washed. Next, anti-rabbit horseradish peroxidase-conjugated secondary antibodies were applied to the membrane, incubated, and washed. Finally, SuperSignal substrate (Pierce, Rockford, Ill.) was applied to the membrane, incubated, and washed.

In assay [4] the test system is transgenic rice and tobacco plants. The conditions noted are these: Yin et al., 1997; Petruccelli et al., 2001; cited from earlier work.
Assay [5] has as its system Box II, Box IIm1 and Box IIm2 elements. The experiment in a line: Surface Plasmon Resonance binding (BIAcore 2000). Here is the method: To compare the binding affinities of RF2a and RF2b with the Box II element and its mutants, real time Surface Plasmon Resonance (“SPR”) measurements were conducted using a BIAcore 2000 instrument. The binding affinities of RF2a and RF2b to these DNA targets were measured on chips on which biotin labeled-Box II, -Box IIm1 and -Box IIm2 elements were immobilized.
The association and de-association constants were determined using BIAevaluation 3.1 software—using 1:1 binding with a mass transfer model. […] Furthermore, the DNA binding behavior of RF2a and RF2b are quite different from each other. […] The differences in the affinity of RF2a to the Box II element and its mutants, however, are not as dramatic as the differences of RF2b, while the relative order of affinities to the different target elements is the same for both proteins (FIG. 8).

In assay [6] the test system is Nicotiana tabacum cv. Xanthi NN. Put plainly: Phenotype of transgenic tobacco plants overexpressing RF2a or RF2a mutants. The conditions noted are these: CaMV 35S promoter driven, T1 generation, greenhouse. Format: in vivo. The source says:
(Yin et al., 1997; Petruccelli et al., 2001). […] Fifteen or more independent transgenic tobacco lines were developed with the constructs described below through Agrobacterium-mediated transformation.
Plasmids for Agrobacterium-mediated transformation—The fusion genes described above relating to the plant expression constructs comprising RF2a deletion mutants were released from pMON999-derived plasmids using NotI (blunted) and cloned into the binary vector pGA-E::GUS (Petruccelli et al., 2001) using the blunt HindIII site (downstream of a CaMV 35S promoter sequence). The final plasmids were named pGA-E::GUS/P-35S::ΔP, pGA-E::GUS/P-35S::ΔQ, pGA-E::GUS/P-35S::ΔPΔA and pGA-E::GUS/P-35S::ΔPΔQ. A plasmid encoding full-length RF2a, p35S::RF2a, was also constructed using the methods described herein.
Tobacco transformation—the plasmids described above were introduced into Agrobacterium tumefaciens strain LBA4404 and used for tobacco transformation. Leaf discs from Nicotiana tabacum cv. Xanthi NN were transformed with the various plasmids following the protocol of Horsch et al. (1988). At least 15 independent transgenic lines were produced with each gene construct. Transgenic plants were self-fertilized, and T1 seeds were collected. The T1 seeds were germinated on Murashige and Skoog medium (Murashige and Skoog, 1962) with kanamycin (100 mg/L) selection, and Kan^r seedlings were grown in a greenhouse for observation.
The phenotype caused by 35S::RF2a-ΔPΔA was similar to, but less severe than, the phenotype caused by 35S::RF2a-3Δ. […] (FIG. 19(C)).

The subject of assay [7] is E fragment of the RTBV promoter. The experiment in a line: Co-transfection of E::GUS with RF2a and/or RF2b constructs in BY-2 protoplasts. It is filed as cell-based, tobacco. The source says:
Nevertheless, the E fragment may be further stimulated by co-transfecting the BY-2 protoplasts with constructs that encode the RF2a and/or RF2b transcription factors. In this Example, the E fragment was activated in tobacco BY-2 protoplasts by co-transfection of E::GUS with CsVMV::RF2b, CaMV 35S::RF2a and CaMV 35S::RF2a/CsVMV::RF2b using methods well-known in the art.

Entries after “also recorded” stand apart in the source; their conditions may differ.

As to `COc1cccc(C(=O)NN(C(=O)c2cc(C)cc(C)c2)C(C)(C)C)c1C` [methoxyfenozide], the “plants with constitutive GUS expression pattern in treated leaves” value in the assay on VGE receptor [1] is listed as “approximately 70%”. For the same molecule, in the assay on VGE receptor [2], the “induction of GUS expression in relation to untreated control plants, average” value is listed as 2.1 fold. Besides, in the assay with VGE receptor [3], the RF2a expression entry was “enhance RF2a expression; also recorded: presence of RF2a”.

B1: RF2a: rice bZIP transcription factor, SEQ ID NO:4 (protein)
chain: MNREKSPIPGDGGDGLPPQATRRAGPPAAAAAAEYDISRMPDFPTRNPGHRRAHSEILSLPEDLDLCAAGGGDGPSLSDENDEELFSMFLDVEKLNSTCGASSEAEAESSSAAAHGARPKHQHSLSMDESMSIKAEELVGASPGTEGMSSAEAKKAVSAVKLAELALVDPKRAKRIWANRQSAARSKERKMRYIAELERKVQTLQTEATTLSAQLALLQRDTSGLTTENSELKLRLQTMEQQVHLQDALNDTLKSEVQRLKVATGQMANGGGMMMNFGGMPHQFGGNQQMFQNNQAMQSMLAAHQLQQLQLHPQAQQQQVLHPQHQQQQPLHPLQAQQLQQAARDLKMKSPMGGQSQWGDGKSGSSGN
modifications: This sequence was artificially derived and/or created by the inventors.
Consider B1, for which the “appearance and reproduction of overexpressing plants” value in assay [4] is “normal in appearance and reproduction”. For the same molecule, the “DNA binding behavior (association and dissociation)” value in assay [5] (1:1 binding with a mass transfer model) was “bind rapidly to the DNA target and slowly dissociates from the target”. Also, the “binding affinities to the Box II, Box IIm1 and Box IIm2 elements” value in assay [5] (compared to RF2b, biotin labeled elements immobilized on chips) was “relatively higher binding affinities”. Moreover, in assay [6], the “phenotype of transgenic tobacco plants” value is “did not exhibit abnormal phenotypes”. Further, the “activation of the E fragment by over-expression” value in assay [7] is listed as “activated above a strong background expression”.

(Values after patent publication US7847064B2, “Methods and compositions for regulating gene expression in plant cells” (Donald Danforth Plant Science Center, priority 2004, dated 2010).)
